The test has as its target HLA-A*11:01 monomer (commercial, biotinylated, preloaded with a UV-sensitive peptide that is destroyed by UV) (human). The test can be described thus: ELISA; UV-mediated peptide exchange: 25 μM peptide in PBS mixed 1:1 with […] biotinylated UV-sensitive HLA-A*11:01 monomer on ice, 366 nm UV 30 min; stable monomers captured on streptavidin plates and detected with HRP anti-human β2-microglobulin; result as percentage of positive signal against positive and negative control peptides. A general note: In an ELISA, binding on a coated surface is turned into a signal by an enzyme label.

VVGAGGVGK [KRAS_(8–16)^WT peptide] showed a percentage of positive signal of 46.6%.
